Binding result and OD492 nm data for eight molecules are collected here from patent US20090169562A1 (CRUCELL HOLLAND B V, published 2009).

B1: SC06-050 (scFv)
scFv: EVQLVESGPEVKKPGASVKVSCEASGYNLDNYGITWVRQAPGQGLEWLGWISAYNAKTEYGQRLQGRVTMTTDTATSTAYLELRSLRSDDTAVYYCARVLGYRGGWYDEGDAFDVWGQGTMVTVSSGTGGSGGTGSGTGGSTDIQLTQSPSFLSASVGDRVTITCRASQGIRSHLAWYQQKAGKAPKLLIYAASTLQSGVPSRFSGSGSGTEFTLTISSLQPDDFAAYYCQQLNTYPITFGQGTRLEIK
notes: Vl 143-249); also called single-chain phage antibody SC06-050
B2: SC06-079 (scFv)
scFv: EVQLVESGGGLVQPGGSLRLSCAASGFTFSSYAMSWVRQAPGKGLEWVSAISGTGGSAYYADSVKGRFTISRDNSKNTVYLQMNSLRAEDTAVYYCAKGHSSGTNWGQGTLVTVSSGTGGSGGTGSGTGGSTSYVLTQPPSASGTPGQRVTISCSGSSSNIGSNFVYWYQQLPGTAPKLLIYRNNQRPSGVPDRFSGSKSGTSASLAISGLRSEDEADYYCAAWDDSLSGVLFGGGTQLTVL
notes: Vl 133-242); also called single-chain phage antibody SC06-079
B3: SC06-071 (scFv)
scFv: EVQLVESGGGVVQPGRSLRLSCAASGFTFSSYGMHWVRQAPGKGLEWVAMIWSDGSNKYYADSVKGRFTISRDNSKNTLYLQMNSLRVEDTAVYYCASNYGSGSYWGGFDYWGQGTLVTVSSGTGGSGGTGSGTGGSTQSALTQPASVSGSPGQSITISCTGTSSDVGGYNLVSWYQQHPGKAPKLMIYEGSKRPSGVSNRFFGSKSGDTASLTISGLQAEDEADYYCSSYTTSSTHVFGTGTKVTVL
notes: Vl 139-248); also called single-chain phage antibody SC06-071
B4: SC06-077 (scFv)
scFv: QVQLVQSGAEVKKPGSSVKVSCKASGGTFSSYAISWVRQAPGQGLEWMGGIIPIFGTANYAQKFQGRVTITADESTSTAYMELSSLRSEDTAVYYCAREGGVGPAFDIWGQGTMVTVSSGTGGSGGTGSGTGGSTDIQMTQSPDSLAVSLGERATINCKSSQSVLHNSNNKNYLAWYQQKPGQPPKLLIYWASTRESGVPDRFSGSGSGTDFTLTISSLQAEDVAVYYCQQYYGSPYTFGQGTKLEIK
notes: Vl 136-248); also called single-chain phage antibody SC06-077
B5: SC06-087 (scFv)
scFv: EVQLVESGGGLVKPGGSLRLSCAASGFTFSSNSMNWVRQAPGKGLEWVSFISSSSTYIYYADSVKGRFTISRDNAKNSLYLQMNSLRAEDTAVYYCARESAAGISYDAFDIWGQGTMVTVSSGTGGSGGTGSGTGGSTQSALTQPASVSGSPGQSITISCTGTSSDVGGYKYVSWYQQHPGKAPKLMIYEVSNRPSGVSNRFSGSKSGSTASLTISGLQAEDEADYYCSSYTSSSTLGVFGTGTKVTVL
notes: Vl 139-249); also called single-chain phage antibody SC06-087
B6: SC06-078 (scFv)
scFv: EVQLVESGAEVKKPGSSVKVSCKASGGTFSSYAISWVRQAPGQGLEWMGGIIPIFGTANYAQKFQGKVTITADESTSTAYMELSSLRSEDTAVYYCARLSPRYYGMDVWGQGTTVTVSSGTGGSGGTGSGTGGSTQSALTQPRSVSGSPGQSVTISCTGTSSDVGGYNYVSWYQQHPGKAPKLMIYGGSERPSGVSNRFSGSKSGNTASLTISGVQAEDEADYYCSSYTSSGTLLFGGGTQLTVL
notes: Vl 136-245); also called single-chain phage antibody SC06-078
B7: SC05-166 (scFv)
scFv: QVQLVQSGAEVKKPGASVKVSCKASGYTFTSYAISWVRQAPGQGLEWMGWISAYNGNTNYARKLQGRVTMTTDTSTSTAYMELRSLRSDDTAVYYCARAGLMFTAWFGELWDHGTKDNWFDPWGQGTLVTVSSGTGGSGGTGSGTGGSTNFMLTQPHSVSESPGKTVTISCTRSSGSIASYYVQWYQQRPGSSPTTVIYEDNQRPSGVPDRFSGSIDSSSNSASLTISGLKTEDEADYYCQSYDSSNQVFGGGTKLTVL
notes: Vl 150-259); also called single-chain phage antibody SC05-166
B8: SC06-195 (scFv, V domains shown)
VH: EVQLVESGGGVVQPGRSLRLSCAASGFTFSSYGMHWVRQAPGKGLEWVAVIWYDGSNKYYADSVKGRFTISRDNSQNTLYLQMNSLRAEDTAVYYCTSYAIAATPGQGTLVTVSS
VL: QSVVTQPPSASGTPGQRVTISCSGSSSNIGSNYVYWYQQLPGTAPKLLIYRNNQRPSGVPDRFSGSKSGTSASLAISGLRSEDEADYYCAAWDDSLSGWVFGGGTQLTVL

T1 sequence (P02769 25-607 limits assumed): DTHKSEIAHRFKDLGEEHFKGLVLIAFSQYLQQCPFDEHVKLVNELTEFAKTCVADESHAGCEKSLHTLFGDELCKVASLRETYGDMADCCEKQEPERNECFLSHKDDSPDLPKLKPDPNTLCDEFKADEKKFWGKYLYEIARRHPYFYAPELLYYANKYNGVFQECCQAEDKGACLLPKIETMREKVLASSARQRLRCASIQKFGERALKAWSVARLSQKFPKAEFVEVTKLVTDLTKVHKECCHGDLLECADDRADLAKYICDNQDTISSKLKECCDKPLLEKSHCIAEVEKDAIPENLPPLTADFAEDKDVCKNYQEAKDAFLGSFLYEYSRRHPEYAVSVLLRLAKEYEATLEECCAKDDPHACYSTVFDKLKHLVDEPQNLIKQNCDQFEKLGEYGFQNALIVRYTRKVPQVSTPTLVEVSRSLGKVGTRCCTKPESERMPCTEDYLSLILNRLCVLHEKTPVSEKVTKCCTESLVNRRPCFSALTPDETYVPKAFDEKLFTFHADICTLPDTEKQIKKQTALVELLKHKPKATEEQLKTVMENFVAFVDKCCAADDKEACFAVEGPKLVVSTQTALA

The first experiment concerns the target T1, bovine serum albumin (BSA) (bovine, UniProt P02769 25-607).
T1 construct: Control antigen coated at 1% in PBS (pH 7.4); also called negative control antigen
The experiment can be described thus: phage ELISA, BSA coated. The procedure: (§1) Selected single-chain phage antibodies that were obtained in the screens described above were validated in ELISA for specific enterococcal binding activity, i.e. binding to one or more enterococcal strains prepared as described supra. 2.5×10⁸ bacteria were coated overnight at 4° C. to Maxisorp™ ELISA plates in 50 μl 50 mM carbonate buffer, pH 9.6. As negative controls, the complex antigens 2% ELK and 1% BSA both in PBS (pH 7.4) were coated. Wells were washed in PBS containing 0.1% (v/v) Tween-20 and blocked with 300 μl PBS containing 2% ELK for at least 1 hour at room temperature. The selected single-chain phage antibodies were incubated for 15 minutes in an equal volume of PBS containing 2% ELK to obtain blocked phage antibodies. The plates were emptied and the blocked single-chain phage antibodies were added to the wells. Incubation was allowed to proceed for one hour at room temperature, the plates were washed in PBS containing 0.1% (v/v) Tween-20 and bound phage antibodies were detected using an anti-M13 antibody conjugated to peroxidase. Absorbance at 492 nm was measured using a spectrophotometer. As a control, the procedure was performed simultaneously without single-chain phage antibody and with a negative control single-chain phage antibody directed against West Nile virus envelope protein (SC04-374).
On the technique in general: An ELISA detects its analyte on a solid surface through an enzyme-linked reagent.
Take B1: the binding result is “no binding”.
The same measure, in the same setting: the entry for B2 is “no binding”; for B3 it is “no binding”; for B4 it is “no binding”.
Regarding B5, the binding result is on record as “no binding”.
Same read-out and setting: the entry for B6 is “no binding”.

In a further experiment the target is T1, bovine serum albumin (BSA). The experiment can be described thus: phage ELISA, 1% BSA coated, anti-M13-HRP detection. The protocol: as §1
In turn, B7 registered an OD492 nm of 0.104 OD492 nm.
Molecule B1 had an OD492 nm of 0.043 OD492 nm.
Still for that read-out and setting: with B2 the figure was 0.048 OD492 nm.
B3 registered an OD492 nm of 0.043 OD492 nm.
B4 gave an OD492 nm of 0.044 OD492 nm.
For B5, the OD492 nm stood at 0.044 OD492 nm.
Molecule B6 had an OD492 nm of 0.073 OD492 nm.
Molecule B8 displayed an OD492 nm of 0.046 OD492 nm.
